Experimental data from patent US20240209100A1 (DIAGONAL THERAPEUTICS, published 2024).
Read-outs that look alike come from different tables or passages of the source.

Columns and labels:
[1] = target: T1, IL-18 receptor (IL-18Rα/IL-18Rβ) overexpressed on HEK-Blue IL-18 cells (Homo sapiens (Human), UniProt Q13478 19-541; O95256 20-599); test: cell-based or functional assay
T1 sequence 1: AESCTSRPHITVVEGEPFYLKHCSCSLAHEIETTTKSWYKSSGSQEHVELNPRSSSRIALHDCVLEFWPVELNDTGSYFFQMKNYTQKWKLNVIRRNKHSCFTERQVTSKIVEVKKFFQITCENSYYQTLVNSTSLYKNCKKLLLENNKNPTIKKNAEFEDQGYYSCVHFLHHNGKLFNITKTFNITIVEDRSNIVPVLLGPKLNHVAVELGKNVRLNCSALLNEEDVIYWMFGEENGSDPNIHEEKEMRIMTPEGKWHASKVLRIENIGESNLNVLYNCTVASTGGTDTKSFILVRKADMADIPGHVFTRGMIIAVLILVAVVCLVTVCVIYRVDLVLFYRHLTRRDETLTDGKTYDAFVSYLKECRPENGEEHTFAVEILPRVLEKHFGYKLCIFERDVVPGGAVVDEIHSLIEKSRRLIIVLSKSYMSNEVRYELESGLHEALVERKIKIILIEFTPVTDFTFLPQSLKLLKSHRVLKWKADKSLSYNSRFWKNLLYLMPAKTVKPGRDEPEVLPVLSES
T1 sequence 2: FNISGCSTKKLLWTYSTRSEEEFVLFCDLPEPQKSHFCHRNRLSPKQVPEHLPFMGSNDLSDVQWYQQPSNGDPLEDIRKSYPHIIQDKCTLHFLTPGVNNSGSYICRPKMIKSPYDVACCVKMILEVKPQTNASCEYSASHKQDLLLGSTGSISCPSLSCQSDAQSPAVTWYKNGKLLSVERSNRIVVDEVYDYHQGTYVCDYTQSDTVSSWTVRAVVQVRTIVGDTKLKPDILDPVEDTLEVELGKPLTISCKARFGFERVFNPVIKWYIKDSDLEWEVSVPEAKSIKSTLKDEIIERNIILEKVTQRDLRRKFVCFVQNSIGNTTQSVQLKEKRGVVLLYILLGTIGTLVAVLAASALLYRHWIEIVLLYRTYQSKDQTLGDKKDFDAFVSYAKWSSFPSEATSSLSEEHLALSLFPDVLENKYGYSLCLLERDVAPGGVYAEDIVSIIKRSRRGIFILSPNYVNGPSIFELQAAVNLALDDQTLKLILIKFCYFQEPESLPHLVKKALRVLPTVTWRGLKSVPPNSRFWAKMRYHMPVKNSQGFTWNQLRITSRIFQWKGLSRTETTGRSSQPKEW

[2] = target: T1, IL-18 receptor (IL-18Rα/IL-18Rβ) …; test: cell-based or functional assay; remark: listed apart in the source
[3] = target: T1, IL-18 receptor (IL-18Rα/IL-18Rβ) …; test: cell-based or functional assay; remark: listed apart in the source
[4] = target: T2, IL-18 receptor (IL-18Rα/IL-18Rβ) on human PBMCs (human, UniProt Q13478 19-541; O95256 20-599); test: cell-based or functional assay
T2 sequence 1: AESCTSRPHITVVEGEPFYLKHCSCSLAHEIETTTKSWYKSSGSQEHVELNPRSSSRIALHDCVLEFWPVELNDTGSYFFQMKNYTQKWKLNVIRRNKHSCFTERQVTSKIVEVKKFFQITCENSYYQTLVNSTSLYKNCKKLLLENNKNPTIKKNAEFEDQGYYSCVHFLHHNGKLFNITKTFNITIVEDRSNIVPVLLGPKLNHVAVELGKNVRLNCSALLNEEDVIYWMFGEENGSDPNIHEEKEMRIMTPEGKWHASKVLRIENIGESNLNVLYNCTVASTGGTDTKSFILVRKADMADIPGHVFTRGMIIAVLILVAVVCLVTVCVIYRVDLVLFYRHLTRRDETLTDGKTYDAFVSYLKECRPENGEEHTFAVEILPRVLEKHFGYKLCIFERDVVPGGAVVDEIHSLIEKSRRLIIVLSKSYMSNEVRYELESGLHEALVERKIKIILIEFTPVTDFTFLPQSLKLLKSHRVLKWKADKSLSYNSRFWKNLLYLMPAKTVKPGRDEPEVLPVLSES
T2 sequence 2: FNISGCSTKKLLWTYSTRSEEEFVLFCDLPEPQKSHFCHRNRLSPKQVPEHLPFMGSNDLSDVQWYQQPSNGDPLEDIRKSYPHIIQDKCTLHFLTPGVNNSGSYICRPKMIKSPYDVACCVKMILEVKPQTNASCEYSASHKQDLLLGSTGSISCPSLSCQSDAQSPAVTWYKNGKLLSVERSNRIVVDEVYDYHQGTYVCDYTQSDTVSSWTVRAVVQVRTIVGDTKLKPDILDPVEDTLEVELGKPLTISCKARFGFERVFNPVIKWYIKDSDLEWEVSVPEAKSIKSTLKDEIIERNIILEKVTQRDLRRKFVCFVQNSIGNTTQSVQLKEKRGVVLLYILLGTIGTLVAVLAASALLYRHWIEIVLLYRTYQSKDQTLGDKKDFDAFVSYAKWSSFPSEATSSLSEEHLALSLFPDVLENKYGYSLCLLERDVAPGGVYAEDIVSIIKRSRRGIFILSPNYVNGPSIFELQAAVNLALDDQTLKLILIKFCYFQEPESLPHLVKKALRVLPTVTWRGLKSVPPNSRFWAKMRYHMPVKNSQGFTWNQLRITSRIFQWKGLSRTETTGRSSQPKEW

human IL-18Rα = target: T3, human IL-18Rα (human, UniProt Q13478 19-329, limits assumed); test: SPR (Carterra LSA), antibody captured on anti-human IgG-Fc, monomeric antigen as analyte, 25 C
T3 construct: Monomeric antigen injected in SPR; also called huIL18Ra; IL-18R alpha
T3 sequence: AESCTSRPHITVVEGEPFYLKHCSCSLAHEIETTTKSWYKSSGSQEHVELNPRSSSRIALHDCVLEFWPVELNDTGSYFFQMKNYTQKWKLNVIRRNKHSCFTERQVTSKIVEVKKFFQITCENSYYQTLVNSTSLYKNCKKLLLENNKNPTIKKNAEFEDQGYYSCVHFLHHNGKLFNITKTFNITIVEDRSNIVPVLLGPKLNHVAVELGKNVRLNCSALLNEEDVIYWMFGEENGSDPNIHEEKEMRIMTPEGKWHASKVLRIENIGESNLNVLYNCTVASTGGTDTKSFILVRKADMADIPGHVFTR
Method: (§1) SPR experiments were performed using Carterra LSA equipped with an HC30M chip (Carterra-Bio). Binding assays were carried out at 25° C. with HBSTE (10 mM HEPES ph7.4, 150 mM NaCl, 3 mM EDTA, 0.05% Tween-20) with 0.5 g/L BSA. A density of anti-human IgG-Fc capture lawn was established on an HC30M chip using amine coupling. […] Coupling of goat anti-human IgG (H+L) multi-species SP ads-UNLB (Southern Biotech, 2087-01) with standard immobilization was done for 15 minutes in 10 mM sodium acetate pH 4.5 and quenched using 1M ethanolamine HCl PH8.5. The anti-human IgG-Fc capture surface was then used to capture a panel of antibodies at 20 μg/mL. Monomeric antigen for human IL-18Rα, human IL-18Rβ, cynomolgus IL-18Rα, or rhesus IL-18Rβ targeted by the antibodies was injected over the captured antibody array at 6 concentrations in 4-fold dilution series starting at 500 nM. Binding data was referenced and blanked from a buffer injected, then globally fit to a 1:1 Langmuir binding model for estimation of ka, kd, and KD using Carterra Kinetics Software.

human IL-18Rβ = target: T4, human IL-18Rβ (human, UniProt O95256 20-356, limits assumed); test: as above
T4 construct: Monomeric antigen injected in SPR; also called IL-18R beta; IL-18Rb
T4 sequence: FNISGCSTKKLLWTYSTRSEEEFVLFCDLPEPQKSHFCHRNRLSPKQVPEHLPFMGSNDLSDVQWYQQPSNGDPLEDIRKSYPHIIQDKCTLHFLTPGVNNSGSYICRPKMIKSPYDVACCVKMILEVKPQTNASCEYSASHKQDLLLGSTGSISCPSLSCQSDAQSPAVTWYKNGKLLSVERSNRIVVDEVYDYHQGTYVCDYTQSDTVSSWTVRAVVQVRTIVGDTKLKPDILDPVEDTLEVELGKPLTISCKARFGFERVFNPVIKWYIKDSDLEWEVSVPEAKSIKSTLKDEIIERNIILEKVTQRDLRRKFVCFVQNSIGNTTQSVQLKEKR
Method: as §1

cynomolgus IL-18Rα = target: T5, cynomolgus IL-18Rα (cynomolgus, UniProt A0A2K5V3J9 19-328); test: as above
T5 construct: also called Cyno IL-18Rα; non-human primate IL-18Rα
T5 sequence: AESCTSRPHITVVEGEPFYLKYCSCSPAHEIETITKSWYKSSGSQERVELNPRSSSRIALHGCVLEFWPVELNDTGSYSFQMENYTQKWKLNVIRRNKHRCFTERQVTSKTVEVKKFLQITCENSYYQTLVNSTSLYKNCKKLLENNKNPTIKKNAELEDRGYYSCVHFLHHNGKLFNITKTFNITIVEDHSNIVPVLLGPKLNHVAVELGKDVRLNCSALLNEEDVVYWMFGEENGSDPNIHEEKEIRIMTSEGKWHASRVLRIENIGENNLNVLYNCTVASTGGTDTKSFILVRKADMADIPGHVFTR
Method: as §1

B1: DGL207 (bispecific antibody)
heavy 1: QVQLVESGGGLVQAGGSLRLSCAASGRTFSKHAMGWFRQAPGKEREFVAAIDWSGGSTYYADSVKGRFTISRDNAKNTVYLQMDSLKPEDTAVYYCAADSYTDYAQLWLPELESEYDYWGQGTLVTVSSCPPCPAPEAAGAPSVFLFPPKPKDTLMISRTPEVTCVVVDVSHEDPEVKFNWYVDGVEVHNAKTKPREEQYNSTYRVVSVLTVLHQDWLNGKEYKCKVSNKALPAPIEKTISKAKGQPREPQVCTLPPSRDELTKNQVSLSCAVKGFYPSDIAVEWESNGQPENNYKTTPPVLDSDGSFFLVSKLTVDKSRWQQGNVFSCSVMHEALHNHYTQKSLSLSPGWSHPQFEK
heavy 2: QLQLVESGGGLVQAGGSLRLSCAASRSITFSHNVMGWYRQAPGKQRELVASIGSGGSTNYVDSVKGRATISRDNAKKTVYLQMNSLKPEDTAVYYCGVVVGVYRGSLGQGTLVTVSSCPPCPAPEAAGAPSVFLFPPKPKDTLMISRTPEVTCVVVDVSHEDPEVKFNWYVDGVEVHNAKTKPREEQYNSTYRVVSVLTVLHQDWLNGKEYKCKVSNKALPAPIEKTISKAKGQPREPQVYTLPPCRDELTKNQVSLWCLVKGFYPSDIAVEWESNGQPENNYKTTPPVLDSDGSFFLYSKLTVDKSRWQQGNVFSCSVMHEALHNHYTQKSLSLSPGEPEA
Q: Which “HEK-Blue IL-18: Abs 405 at 100 nM” value [1] does the source give for B1 here?
A: 2.6 Abs

Q: And the “HEK-Blue IL-18: Fold over Background” value [1]?
A: 11.4 fold

Q: What about the “EC50 (read off the curve), HEK Blue IL-18 SEAP reporter” value [2] of the same binder?
A: ~0.5 nM

B2: DGL620 (bispecific antibody)
heavy 1: EVQLLESGGGLVQPGGSLRLSCAASGRTFSKHAMGWFRQAPGKGLEFVSAIDWSGGSTYYADSVKGRFTISRDNSKNTVYLQMNSLRAEDTAVYYCAADSYTDYAQLWLPELESEYDYWGQGTLVTVSSCPPCPAPEAAGAPSVFLFPPKPKDTLYITREPEVTCVVVDVSHEDPEVKFNWYVDGVEVHNAKTKPREEQYNSTYRVVSVLTVLHQDWLNGKEYKCKVSNKALPAPIEKTISKAKGQPREPQVCTLPPSRDELTKNQVSLSCAVKGFYPSDIAVEWESNGQPENNYKTTPPVLDSDGSFFLVSKLTVDKSRWQQGNVFSCSVMHEALHNHYTQKSLSLSPG
heavy 2: QLQLLESGGGLVQAGGSLRLSCAASRSITFSHNVMGWYRQAPGKGRELVSSIGSGGSTNYVDSVKGRFTISRDNSKKTLYLQMNSLRAEDTAVYYCGVVVGVYRGSLGQGTLVTVSSCPPCPAPEAAGAPSVFLFPPKPKDTLYITREPEVTCVVVDVSHEDPEVKFNWYVDGVEVHNAKTKPREEQYNSTYRVVSVLTVLHQDWLNGKEYKCKVSNKALPAPIEKTISKAKGQPREPQVYTLPPCRDELTKNQVSLWCLVKGFYPSDIAVEWESNGQPENNYKTTPPVLDSDGSFFLYSKLTVDKSRWQQGNVFSCSVMHEALHNHYTQKSLSLSPG
Q: Which “HEK-Blue IL-18: Abs 405 at 100 nM” value [3] does the source give for B2 here?
A: 1.87 Abs

Q: What about the “HEK-Blue IL-18: Fold over Background” value [3] of the same binder?
A: 10.1 fold

Q: What about the “PBMC: calculated maximum induction of IFNγ after 24 hours, donor 1” value [4] of the same binder?
A: 16000

Q: And the “PBMC: calculated maximum induction of IFNγ after 24 hours, donor 2” value [4]?
A: 1300

Q: What about the “PBMC: calculated maximum induction of IFNγ after 24 hours, donor 3” value [4] of the same binder?
A: 22000

Q: What about the “PBMC: calculated maximum induction of IFNγ after 24 hours, donor 4” value [4] of the same binder?
A: 19000

Q: What about the “PBMC: calculated maximum induction of IFNγ after 24 hours, donor 5” value [4] of the same binder?
A: 15000

Q: What about the “PBMC: calculated maximum induction of IFNγ after 24 hours, donor 6” value [4] of the same binder?
A: 2400

Q: What about the “EC50 (read off the curve), HEK Blue IL-18 SEAP reporter” value [2] of the same binder?
A: ~1 nM

Q: What about the Kd (human IL-18Rα) of the same binder?
A: 8 nM

Q: And the Kd (human IL-18Rβ)?
A: 14 nM

Q: And the Kd (cynomolgus IL-18Rα)?
A: 10 nM
